{"source": "patent US7229621B2", "about": "“Method to enhance the immunogenicity of an antigen” (Torrey Pines Institute for Molecular Studies, priority 1998, dated 2007)", "key": {"MHC class I molecule K^b": {"target": "T1, MHC class I molecule K^b (Mus musculus, UniProt P01901)", "T1 construct": "endogenous in cells; host or cells: primary epidermal Langerhans cells from C57BL/6 dorsal ear skin explants", "T1 sequence (P01901 22-369)": "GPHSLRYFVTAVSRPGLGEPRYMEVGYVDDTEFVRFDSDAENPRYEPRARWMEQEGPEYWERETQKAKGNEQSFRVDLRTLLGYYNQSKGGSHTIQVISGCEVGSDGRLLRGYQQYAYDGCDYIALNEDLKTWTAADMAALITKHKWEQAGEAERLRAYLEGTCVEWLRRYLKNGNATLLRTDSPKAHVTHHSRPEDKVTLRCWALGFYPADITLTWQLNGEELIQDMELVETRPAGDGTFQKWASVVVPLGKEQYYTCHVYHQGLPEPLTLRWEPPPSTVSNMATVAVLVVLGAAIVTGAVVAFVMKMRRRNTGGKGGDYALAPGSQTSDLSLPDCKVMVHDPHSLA", "T1 sequence (P01887 21-119 partner)": "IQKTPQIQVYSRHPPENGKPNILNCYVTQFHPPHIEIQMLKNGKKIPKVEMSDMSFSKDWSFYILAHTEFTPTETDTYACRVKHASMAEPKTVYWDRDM", "assay": "[…]:K^b complexes on primary epidermal Langerhans cells in vitro (mAb 25-D1.16 flow cytometry)", "type": "cell-based, C57BL/6 mice", "conditions": "1.5 hrs", "source_text": "To evaluate the immunogenic potential of various vaccine formulations and delivery methods, an antigen system that permits quantitative determination of the number of specific peptide:MHC complexes expressed on the cell membrane was used. To date, the only direct way to quantitate antigenic epitopes expressed on living cells and recognized by T cells is with the use of monoclonal antibodies (mAbs) specific for individual peptide:MHC complexes. Chicken ovalbumin (OVA) is a 40 kDa protein that has been used for many years as a prototypic experimental antigen for immunologic studies. The OVA257-264 peptide, […] (963 Da), is processed and presented in the peptide-binding groove of the MHC class I molecule K^b. The mAb, 25-D1.16, has specificity for the […]:K^b complex (Porgador et al. 1997 Immunity 6:715–726).\nPrimary epidermal Langerhans cells were obtained from cultured explants of C57BL/6 dorsal ear skin according to the method of Ortner et al. (Ortner et al. 1996 J. Immunol. Meth. 193:71). Over a period of 72 hrs in culture, Langerhans cells mature and migrate out of the explant, dropping onto the bottom of the culture dish. These cells were harvested and incubated for 1.5 hrs at 37° C. with various concentrations of synthetic […] peptide. The cells were then washed and stained with a FITC-conjugated anti-MHC class II (I-A^b) mAb, as well as with affinity purified and biotinylated 25-D1.16 followed by PE-avidin, and analyzed on a FACScan® flow cytometer. Non-specific binding of immunoglobulin proteins was blocked by pre-incubation and staining of the cells in a mixture of isotype control mAbs (rat IgG2a, rat IgG2b, mouse IgG1 and mouse IgG2a, each at 100–200 μg/ml) and the anti-Fc receptor mAb 2.4G2. Langerhans cells were identified by their characteristic light scatter properties (high forward, moderate side scatter) and exceptionally high levels of MHC class II expression, with the latter used to optimize the light scatter gate for each experiment. Dead cells were excluded from analysis by their uptake of 7AAD (7-amino-actinomycin D).\nEach data point represents the mean and S.E. of 3 to 5 independent experiments. […]\n(§1) As stated previously, whether mature antigen-bearing dendritic cells will be encountered by and activate naive T cells in the lymph node is likely to depend not only on the number of antigen-bearing dendritic cells that enter the node, but also on the density of MHC:peptide complexes expressed on their membranes. To estimate the density of peptide:MHC complexes on the immigrant dendritic cells generated by this procedure, we compared the fluorescence intensity of various cell populations detected by the peptide:MHC-specific mAb, 25-D1.16, using identical staining conditions and flow cytometer settings. The results are shown in Table IV, providing the number of specific peptide:MHC complexes expressed on the plasma membrane of dendritic cells after various treatments in vitro or in vivo."}, "E.G7-OVA cells": {"test_system": "E.G7-OVA cells", "assay": "K^b:[…] complexes on E.G7-OVA cells (mAb 25-D1.16 fluorescence standard)", "type": "cell-based, C57BL/6", "conditions": "endogenous SIINFEKL", "source_text": "as §1\nThe tumor cell, E.G7-OVA, is the C57BL/6 EL4 thymoma transfected with the complete gene for chicken ovalbumin (OVA). […] The number of those complexes expressed per cell has been measured independently by two different laboratories and reported to be 88 (Rotzschke et al. 1991 Eur. J. Immunol. 21:2891–2894) and 90 (Malarkannan et al. 1995 J. Exp. Med. 182:1739–1750). Therefore, the fluorescence intensity of E.G7-OVA could be used as a standard by which to estimate the number of K^b:[…] complexes expressed on the dendritic cell populations identified in the present study. […]"}, "EL4 tumor cells": {"test_system": "EL4 tumor cells", "assay": "EL4 parent tumor growth (negative control tumor) after intravaginal immunization", "type": "in vivo, C57BL/6 mice", "conditions": "SIINFEKL in acetone and dibutyl phthalate intravaginally; EL4 lacks ovalbumin", "source_text": "The mucous membranes lack the tough barrier posed by the stratum corneum of the skin. […] The EL4 parent tumor cell line, lacking chicken ovalbumin, was used as a negative control; no immunity against the EL4 tumor cells was seen. Thus, the inventors' hypothesis regarding penetration of the stratum corneum was confirmed; the […] peptide was not effectively reaching the immature dendritic cells, known as Langerhans cells, underlying the stratum corneum."}}}
{"sequence": "SIINFEKL [eight amino acid peptide OVA257-264 of chicken ovalbumin, tumor-associated peptide antigen presented by K^b]", "values": [{"measurement": "Median No. of Complexes/Cell", "setting": "MHC class I molecule K^b; 0.1 nM SIINFEKL in vitro", "value": 240, "unit": "complexes/cell"}, {"measurement": "Median Specific Fl. Intensity", "setting": "MHC class I molecule K^b; 0.1 nM SIINFEKL in vitro", "value": 12}, {"measurement": "Median No. of Complexes/Cell", "setting": "MHC class I molecule K^b; 1.0 nM SIINFEKL in vitro", "value": "1,600 complexes/cell"}, {"measurement": "Median Specific Fl. Intensity", "setting": "MHC class I molecule K^b; 1.0 nM SIINFEKL in vitro", "value": 80}, {"measurement": "Median No. of Complexes/Cell", "setting": "MHC class I molecule K^b; 10 nM SIINFEKL in vitro", "value": "4,180 complexes/cell"}, {"measurement": "Median Specific Fl. Intensity", "setting": "MHC class I molecule K^b; 10 nM SIINFEKL in vitro", "value": 209}, {"measurement": "Median No. of Complexes/Cell", "setting": "MHC class I molecule K^b; 100 nM SIINFEKL in vitro", "value": "11,160 complexes/cell"}, {"measurement": "Median Specific Fl. Intensity", "setting": "MHC class I molecule K^b; 100 nM SIINFEKL in vitro", "value": 558}, {"measurement": "Median No. of Complexes/Cell", "setting": "MHC class I molecule K^b; 1 μM SIINFEKL in vitro", "value": "15,200 complexes/cell"}, {"measurement": "Median Specific Fl. Intensity", "setting": "MHC class I molecule K^b; 1 μM SIINFEKL in vitro", "value": 760}, {"measurement": "Median Specific Fl. Intensity", "setting": "E.G7-OVA cells", "value": 4.5}, {"measurement": "immunity against EL4 tumor cells", "setting": "EL4 tumor cells", "value": "no immunity"}]}
